Assay results from US12398179 (SANFORD BURNHAM PREBYS MEDICAL DISCOVERY INSTITUTE, dated 2025).
Read-outs that look alike come from different tables or passages of the source. Non-standard residues stand in square brackets, D forms with d. No end group written: not given here. *: point of attachment. Biotin = O=C1N[C@H]2[C@H](CS[C@H]2CCCCC(=O)*)N1; βAla = NCCC(=O)O

Columns and labels:
[1] = molecular target: T1, EphA2 ligand binding domain (EphA2 LBD, residues 28-200) with N-terminal MASQGPG and C-terminal Ala-6xHis tag (UniProt P29317 28-200); assay: ITC, peptide titrated into EphA2 LBD, 23 °C; average ± SE (number of experiments)
T1 construct: range 28-200; Expressed in E. coli Origami 2 (DE3); used for ITC and crystallization
Procedure: For ITC, all peptides were dissolved in DMSO and both the EphA2 LBD and the peptides were diluted to obtain a final buffer containing 9.5 mM HEPES, pH 7.9, 95 mM NaCl, and 5% DMSO. […] Two-microliter aliquots of a peptide solution were injected into the cell containing 205 µL EphA2 LBD. 200-400 µM peptides were titrated into 20-40 µM EphA2 LBD. Experimental data were analyzed using the Origin software package (Microcal). The integrated values for the reaction heats were normalized to the amount of injected peptide after blank subtraction.

[2] = molecular target: T2, EphA2 extracellular domain fused to the Fc portion of an antibody (EphA2 Fc); assay: ELISA, inhibition of ephrin-A5 AP binding to immobilized EphA2 Fc; representative experiment; concentrations in nM
T2 construct: extracellular domain; Immobilized in the ELISAs

[3] = molecular target: T2, EphA2 extracellular domain fused to the …; assay: competition ELISA: inhibition of ephrin-A5 AP binding to immobilized EphA2 Fc; average ± SE (number of experiments)
[4] = molecular target: T3, endogenous EphA2 expressed in PC3 prostate cancer cells (UniProt P29317 24-976, limits assumed); assay: cell-based or functional assay
[5] = molecular target: T3, endogenous EphA2 expressed in PC3 …; assay: cell-based or functional assay; remark: listed apart in the source
[6] = molecular target: T3, endogenous EphA2 expressed in PC3 …; assay: cell-based or functional assay; remark: listed apart in the source
[7] = molecular target: T3, endogenous EphA2 expressed in PC3 …; assay: cell-based or functional assay; remark: listed apart in the source
[8] = molecular target: T3, endogenous EphA2 expressed in PC3 …; assay: cell-based or functional assay; remark: listed apart in the source
[9] = molecular target: the molecule itself; assay: quantitative FRET in HEK293 cells, monomer-dimer fit; dimerization of the mutant in the presence of 50 µM YSA-GSGSK-bio; row assigned as for Kdiss
[10] = molecular target: the molecule itself; assay: quantitative FRET in HEK293 cells, monomer-dimer fit; dimerization of the mutant without peptide; row assigned as for Kdiss
[11] = molecular target: T3, endogenous EphA2 expressed in PC3 …; assay: cell-based or functional assay; remark: listed apart in the source
[12] = molecular target: T3, endogenous EphA2 expressed in PC3 …; assay: cell-based or functional assay; remark: listed apart in the source
[13] = molecular target: T2, EphA2 extracellular domain fused to the …; assay: competition ELISA: inhibition of ephrin-A5 AP binding to EphA2 Fc
[14] = molecular target: T3, endogenous EphA2 expressed in PC3 …; assay: cell-based or functional assay; remark: listed apart in the source

T1 sequence (P29317 other isoform, or with tags, fused parts or gaps limits assumed, form in doubt): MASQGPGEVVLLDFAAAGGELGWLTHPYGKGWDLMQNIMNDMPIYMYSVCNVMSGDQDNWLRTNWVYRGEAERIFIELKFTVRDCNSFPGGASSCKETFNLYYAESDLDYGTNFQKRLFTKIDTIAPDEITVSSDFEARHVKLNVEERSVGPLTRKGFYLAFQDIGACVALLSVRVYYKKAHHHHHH
T2 sequence (P29317 whole entry, the tested form may be a part): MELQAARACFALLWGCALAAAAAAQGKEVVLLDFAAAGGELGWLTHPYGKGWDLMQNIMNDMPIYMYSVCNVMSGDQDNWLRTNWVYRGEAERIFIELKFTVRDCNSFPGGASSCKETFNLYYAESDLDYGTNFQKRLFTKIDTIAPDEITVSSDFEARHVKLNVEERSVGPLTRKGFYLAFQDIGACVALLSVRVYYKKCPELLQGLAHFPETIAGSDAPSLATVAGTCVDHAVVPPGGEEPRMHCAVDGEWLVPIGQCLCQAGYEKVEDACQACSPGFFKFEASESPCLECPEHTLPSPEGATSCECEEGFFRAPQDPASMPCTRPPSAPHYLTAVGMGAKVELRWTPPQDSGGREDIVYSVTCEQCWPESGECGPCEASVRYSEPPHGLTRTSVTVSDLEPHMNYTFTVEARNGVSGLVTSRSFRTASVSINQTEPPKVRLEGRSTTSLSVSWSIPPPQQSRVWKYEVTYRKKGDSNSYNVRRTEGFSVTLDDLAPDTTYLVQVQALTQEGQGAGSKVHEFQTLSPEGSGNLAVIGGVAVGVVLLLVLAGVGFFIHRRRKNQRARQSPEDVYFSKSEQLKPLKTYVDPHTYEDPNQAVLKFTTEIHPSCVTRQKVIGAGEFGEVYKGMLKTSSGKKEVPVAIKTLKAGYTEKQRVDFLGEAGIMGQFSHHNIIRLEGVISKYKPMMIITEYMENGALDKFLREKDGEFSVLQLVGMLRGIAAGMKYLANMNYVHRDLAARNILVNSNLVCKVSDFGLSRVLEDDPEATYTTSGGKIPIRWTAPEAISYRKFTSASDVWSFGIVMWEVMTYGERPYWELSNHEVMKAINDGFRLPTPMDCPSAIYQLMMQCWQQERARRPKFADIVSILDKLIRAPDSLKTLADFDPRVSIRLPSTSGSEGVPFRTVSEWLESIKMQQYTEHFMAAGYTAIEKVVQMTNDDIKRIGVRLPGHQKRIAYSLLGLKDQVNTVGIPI

Binder: [βAla]WLAYPDSVPYRPK (also called BA-WLA-YRPK) [βA-WLA-YRPK]
- Kd [1]: 190 nM
- IC50 [2]: 53 nM
- IC50 [3]: 55 nM
- EC50 of EphA2 pY588 induction, immunoblot, PC3 cells, 15 min [4]: 300 nM
- IC50 of AKT S473 phosphorylation (pAKT), immunoblot, PC3 cells, 15 min [4]: 500 nM

Binder: [βAla]WLAYPDSVPYRPK(Biotin)-NH2 [βA-WLA-YRPKam-bio]
- EC50 of EphA2 pY588 induction, immunoblot, PC3 cells, 15 min [5]: 100 nM
- IC50 of AKT S473 phosphorylation (pAKT), immunoblot, PC3 cells, 15 min [5]: 210 nM

Binder: [βAla]WLAYPDSVPYGSGK(Biotin) [βA-WLA-YGSGK-bio]
- EC50 of EphA2 pY588 induction, immunoblot, PC3 cells, 15 min [6]: 1 µM

Binder: [βAla]WLAYPDSVPYK(Biotin) [βA-WLA-YK-bio]
- IC50 of AKT S473 phosphorylation (pAKT), immunoblot, PC3 cells, 15 min [7]: 0.97 µM

Binder: KAWLAYPDSVPYRPK (biotin on the N-terminal lysine (K-bio); C-terminal amide (am)) [K-bioA-WLA-YRPKam]
- IC50 [2]: 14 nM

Binder: [βAla]WLAYPDSVPYGSK(Biotin) [βA-WLA-YGSK-bio]
- EC50 of EphA2 pY588 induction, immunoblot, PC3 cells, 15 min [8]: 2.2 µM
- IC50 of AKT S473 phosphorylation (pAKT), immunoblot, PC3 cells, 15 min [8]: 0.93 µM

B1: βA-WLA-YRPK-bio (peptide)
peptide: [βAla]WLAYPDSVPYRPK(Biotin)
notes: also called bA-WLA-YRPK-bio; BA-WLA-YRPK-bio
- IC50 [2]: 37 nM

B2: L223R/L254R/V255R (receptor)
chain: AQGKEVVLLDFAAAGGELGWLTHPYGKGWDLMQNIMNDMPIYMYSVCNVMSGDQDNWLRTNWVYRGEAERIFIELKFTVRDCNSFPGGASSCKETFNLYYAESDLDYGTNFQKRLFTKIDTIAPDEITVSSDFEARHVKLNVEERSVGPLTRKGFYLAFQDIGACVALLSVRVYYKKCPELLQGLAHFPETIAGSDAPSRATVAGTCVDHAVVPPGGEEPRMHCAVDGEWRRPIGQCLCQAGYEKVEDACQACSPGFFKFEASESPCLECPEHTLPSPEGATSCECEEGFFRAPQDPASMPCTRPPSAPHYLTAVGMGAKVELRWTPPQDSGGREDIVYSVTCEQCWPESGECGPCEASVRYSEPPHGLTRTSVTVSDLEPHMNYTFTVEARNGVSGLVTSRSFRTASVSINQTEPPKVRLEGRSTTSLSVSWSIPPPQQSRVWKYEVTYRKKGDSNSYNVRRTEGFSVTLDDLAPDTTYLVQVQALTQEGQGAGSKVHEFQTLSPEGSGNLAVIGGVAVGVVLLLVLAGVGFFIHRRRKNQRARQSPEDVYFSKSEQLKPLKTYVDPHTYEDPNQAVLKFTTEIHPSCVTRQKVIGAGEFGEVYKGMLKTSSGKKEVPVAIKTLKAGYTEKQRVDFLGEAGIMGQFSHHNIIRLEGVISKYKPMMIITEYMENGALDKFLREKDGEFSVLQLVGMLRGIAAGMKYLANMNYVHRDLAARNILVNSNLVCKVSDFGLSRVLEDDPEATYTTSGGKIPIRWTAPEAISYRKFTSASDVWSFGIVMWEVMTYGERPYWELSNHEVMKAINDGFRLPTPMDCPSAIYQLMMQCWQQERARRPKFADIVSILDKLIRAPDSLKTLADFDPRVSIRLPSTSGSEGVPFRTVSEWLESIKMQQYTEHFMAAGYTAIEKVVQMTNDDIKRIGVRLPGHQKRIAYSLLGLKDQVNTVGIPI
modifications: A C-terminal fluorescent protein tag (mTURQ donor or EYFP acceptor) is not carried in the letters.
notes: also called EphA2 L223R/L254R/V255R; clustering interface triple mutant; not shown: C-terminal fluorescent protein (mTURQ or EYFP) and any linker to it
- ΔG of dimerization [9]: -5 kcal/mol
- ΔG of dimerization [10]: -3.8 kcal/mol

Binder: [βAla]WLAYPDSVPYRPK-NH2 (also called BA-WLA-YRPKam) [βA-WLA-YRPKam]
- EC50 of restoration of pAKT (S473) in cells treated with 0.1 µg/ml ephrin-A1 Fc, immunoblot, PC3 cells [11]: 2.4 µM
- IC50 of inhibition of EphA2 pY588 induced by 0.1 µg/ml ephrin-A1 Fc, immunoblot, PC3 cells [11]: 3.2 µM
- Kd [1]: 110 nM
- IC50 [2]: 24 nM
- IC50 [3]: 19 nM

Binder: [βAla]WLAYPDSVPYSPK(Biotin) [βA-WLA-YSPK-bio]
- EC50 of EphA2 pY588 induction, immunoblot, PC3 cells, 15 min [12]: 37 nM
- IC50 of AKT S473 phosphorylation (pAKT), immunoblot, PC3 cells, 15 min [12]: 30 nM

B3: YSA-GSGSK-bio (peptide)
peptide: YSAYPDSVPMMSGSGSK(Biotin)
notes: YSA with C-terminal GSGSK linker and biotin on the lysine side chain; also called YSA-GSGSK-biotin; YSA-GSGSK-bio peptide
- IC50 [3]: 820 nM

Binder: [βAla]WLAYPDSVPY-NH2 (also called bA-WLA-Yam; BA-WLA-Yam) [βA-WLA-Yam]
- fold improvement in potency against βA-WLAam [13]: ~2 fold
- IC50 [2]: 440 nM
- IC50 [3]: 410 nM

Binder: [βAla]WLAYPDSVPYRPK(Ac) [βA-WLA-YRP-acK]
- EC50 of EphA2 pY588 induction, immunoblot, PC3 cells, 15 min [14]: 190 nM
- IC50 of AKT S473 phosphorylation (pAKT), immunoblot, PC3 cells, 15 min [14]: 370 nM

B4: βA-WLA-YSK-bio (peptide)
peptide: [βAla]WLAYPDSVPYSK(Biotin)
notes: also called bA-WLA-YSK-bio; BA-WLA-YSK-bio
- IC50 [3]: 300 nM

Binder: YSAYPDSVPMMSGSGSK [YSA-GSGSK]
- Kd [1]: 8000 nM
- IC50 [2]: 4500 nM
- IC50 [3]: 4500 nM
